B1: ALDH8A1 (parent)
chain: FTGSQPTAERITQLSAPHCKKLSL

Variants of: B1
Experiment: protein stability index of a GFP-peptide fusion (GPS, HEK-293T) (PSI 1-6); higher = more stable
Conditions: c terminus: a fixed tail appended
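Further: lentivirally expressed fusions sorted by FACS into six bins by GFP to DsRed ratio, PSI derived from sequencing read proportions per bin multiplied by bin number.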

Protein stability index: each site, then its substitutions
A8: P 2.3; N 2.09; S 1.9; H 2.61; D 2.16; V 2.45; W 3.71; K 1.8; I 2.46; E 2.6; F 1.42; M 2.58; G 2.95; C 2.09; R 2.6; Q 2.4; Y 2.27; T 2.24; L 2.42
E9: P 2.05; N 1.99; A 1.96; T 1.87; D 2.52; M 1.37; C 2.14; Q 2.09; W 3.33; S 1.86; H 2.15; F 2.74; Y 3.14; G 2.1; K 2.06; R 1.96; I 2.23; V 1.46; L 3.09
P6: T 1.77; D 2.43; K 2.7; H 2.25; S 2.1; R 2.15; A 1.94; G 1.96; N 2.71; L 2.04; Q 2.38; V 2.07; E 2.79; M 2.56; W 3.07; C 2.42; Y 1.92; I 2.07; F 1.9
T7: L 2.27; V 2; A 3.05; M 2.12; I 2.39; R 2.55; H 2.02; G 2.11; K 2.32; N 2.83; Y 2.61; W 1.2; Q 2.86; F 2.99; P 2.67; D 2.98; E 2.62; C 2; S 2.08
T2: Y 3.35; Q 3.24; H 2.2; P 3.41; M 3.07; C 1.86; K 3.42; R 3.37; S 3.11; A 2.38; G 3.19; F 2.89; D 3.95; V 1.02; I 2.07; L 2.74; W 2.53; N 3.41; E 3.86
G3: E 3.56; Y 2.54; S 2.65; F 1.97; P 2.07; W 2.66; N 2.62; H 2.4; Q 2.38; V 2.44; A 2.88; R 2.71; K 3.45; L 2.6; C 2.68; M 2.56; D 3.15; I 2.77; T 2.69
S4: C 2.31; M 1.98; R 1.62; V 2.75; H 2.59; W 3.16; I 2.36; F 2.03; D 3.06; P 2.67; T 2.69; A 2.56; Y 2.22; L 2.1; Q 2.02; G 1.7; E 3.18; N 2.21; K 2.6
F1: M 3.62; W 3.35; P 4.14; I 3.86; K 3.96; H 4.18; G 4.34; R 3.78; Y 2.47; L 3.65; S 3.92; Q 4.31; V 3.82; N 4.34; T 4.27
Q5: G 2.15; F 1.68; H 2.14; C 2.45; V 2.38; A 2.08; S 3.01; K 2.06; E 2.57; I 2.39; M 2.19; N 2.33; D 2.19; W 4.02; P 2.99; R 2.39; T 2.24; Y 2.36; L 1.65

— the supplement of paper PMC10567573
